Experiment: label from the status in PepcDB records
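Also: failed if final PepcDB status was selected cloned or expressed and not failed if soluble or beyond.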

Sequence | protein production
MSERAIAHLGPVGTYAEMAALRFQAWLTQQDQQPSRLLACRSIPATLQTLADGAVDYAVVPVENSVEGSVAATLDSLWQLPQLSIQRALILPIAHALISFESDRTAIRQVLSHPQALAQCQQWLQRHLPQAELIPANSTTEALQDLERHPQRAVIASTRAAELYQMPIQSFPINDSPDNRTRFWVISRSPTPGGACTSLNFSLDANVPGALVKPLQILADRRINLSRIESRPTKRSLGEYLFFLDLEADLRDPAIAAAVQAVADCTEQLRVLGSYDSLDFTQSVLVPAQAR | failed
MKNLHRCKKIFLRVFSRSARRQREPLQDAVLDLHQGAFGGFAPCSAPVQLKRKRPMTKPETTAPTAKAVLPIGLLIAVLAMVAVLLLPLPADLPVAGHRMLAILAFAVVVWISEAVSYEASAIMITALMAFLIGTAPTLQDPSQLYGSSAAIGLALTGFSNSALALVAGALFIAAAMTHTGLDRRIALVTLTRVGTSTRRILIGAIAVTILLSLLVPSATARSACVVPIMMGVIAAFGVDKRSNIAAGLMIVVAQGTSIWNVGIQTAAAQNLLTVGFMDKMLGQRVAWLDWLIAGAPWAVIMSLVLLWLVLKLLPPETDSIPGGKEAVAQSLADIGPMTGPQKRLLTVSVLLLLAWSTEGKLHPFDTTTTTYAGLVILLLPRIGIMTWKDVQSRIPWGTVIVFGVGISLGSALLSTQAGQWLGSQVVAHTGLDQVGPLAVFAILAAFLILIHLGFASATALTSALLPILIAVLQTLPGEFSRLGMTMLLGFVVSYGFILPINAPQNMVCLGTETFNARQFAKVGLLVTLIGYLLMLVFAMTWWKWLGWM | failed
MGMKDVFKRYLVFVIGLYFLAAGIVLIVRSALGTTPISSVNYVLSLNSPLSLGTCTFLINMLLILGQFWVIRKNKTRQDTIEILLQLPFSFIFSAFIDFNMALTSNLHPDNYGMSIALLLTGCMIQSIGVVLELKPKVAMMSAEAFVKYASRRYNKEFGKFKVCFDVTLVTLAVILSLLLSQCIEGVREGSLIAACITGYIVSFLNQKIMTRKTLYKLLPVLK | failed
MTARELLKIVVVGHVDHGKSTIIGRLLYDTKSVPEAAIERVKRISKEKGRPFEYAYLLDALEEEQKQGITIDTTQIKFSTPKRDYLIIDAPGHKEFLKNMVSGAANAEAALLVIDAAEGVQEQSKRHAYILSLLGIQKVYVIVNKMDMIEFSEKKFKEIKYEISTFLSKLNVYPQKYIPVSGFLGENIARKSDKMPWYKGETLLQALDLFEKDKELEDRPLRFPIQDVYKFDHRRVIAGRLESGRLKVGDEIKILPEGKVSKVKSIEFWPENNKKDEVVAGMSIGITIEDEFFNKRGEVIVHKNDNTLYVSDTFRANLFWLGKRNLVKNKTYKLKLVTQETECEIVSIDKVIDATTLETVENALEVRTNDVAEVTIKTREKICFDEFKVNPTTGRFVLVDEYDVSGGGIISGLANLKEEATKFVKDDKEMIVHCFDEYYYSLSEGLIRKHSKYKRTFKVGDAVPIEGETYSYPESFDVIDINGKLVAKVRKGQLSDLVDIDQYIYSELPIITADGFYLKVNSIDEFKDFKNELVQLQKNDNFHLAMFANKWYDISANRSFKFTV | failed
MQGIPLGSEYFEKLDPYFLVCIAKEYLLFCPKQPRLPGQIVSPLLKQVAVILNPVVKAAPALIDPLYLMAQVRYYSGELENAQSILQRCLELDPASVDAHLLMCQIYLAQGNFGMCFHCLELGVSHNFQVRDHPLYHLIKARALNKAGDYPEAIKTLKMVIKLPALKKEEGRKFLRPSVQPSQRASILLELVEALRLNGELHEATKVMQDTINEFGGTPEENRITIANVDLVLSKGNVDVALNMLRNILPKQSCYMEAREKMANIYLQTLRDRRLYIRCYRELCEHLPGPHTSLLLGDALMSILEPEKALEVYDEAYRQNPHDASLASRIGHAYVKAHQYTEAIEYYEAAQKINGQDFLCCDLGKLLLKLKKVNKAEKVLKQALEHDIVQDIPSMMNDVKCLLLLAKVYKSHKKEAVIETLNKALDLQSRILKRVPLEQPEMIPSQKQLAASICIQFAEHYLAEKEYDKAVQSYKDVFSYLPTDNKVMLELAQLYLLQGHLDLCEQHCAILLQTEQNHETASVLMADLMFRKQKHEAAINLYHQVLEKAPDNFLVLHKLIDLLRRSGKLEDIPAFFELAKKVSSRVPLEPGFNYCRGIYCWHIGQPNEALKFLNKARKDSTWGQSAIYHMVQICLNPDNEVVGGEAFENQGAESNYMEKKELEQQGVSTAEKLLREFYPHSDSSQTQLRLLQGLCRLATREKANMEAALGSFIQIAQAEKDSVPALPALAQAYVFLKQIPKARMQLKRLAKTPWVLSEAEDLEKSWLLLADIYCQGSKFDLALELLRRCVQYNKSCYKAYEYMGFIMEKEQSYKDAVTNYKLAWKYSHHANPAIGFKLAFNYLKDKKFVEAIEICNDVLREHPDYPKIREEILEKARKSLRP | failed
MQTQLTEEMRQNARALEADSILRACVHCGFCTATCPTYQLLGDELDGPRGRIYLIKQVLEGNEVTLKTQEHLDRCLTCRNCETTCPSGVRYHNLLDIGRDIVEQKVKRPLPERILREGLRQVVPRPAVFRALTQVGLVLRPFLPEQVRAKLPAETVKAKPRPPLRHKRRVLMLEGCAQPTLSPNTNAATARVLDRLGISVMPANEAGCCGAVDYHLNAQEKGLARARNNIDAWWPAIEAGAEAILQTASGCGAFVKEYGQMLKNDALYADKARQVSELAVDLVELLREEPLEKLAIRGDKKLAFHCPCTLQHAQKLNGEVEKVLLRLGFTLTDVPDSHLCCGSAGTYALTHPDLARQLRDNKMNALESGKPEMIVTANIGCQTHLASAGRTSVRHWIEIVEQALEKE | failed
MGGKYSRGEERRPLGFPGFSALCCCQKTNREETPLGFCDIKARRSNLSFGREDPAYLDMAYFPDNDLHMAACAGDLPFVRLYFTLGKYEVNHRDRENRNAMHFACFYGHLELVIYLWRRGCEINVCDNHNITPLMKAVQSWEDKIVCFLLEHHANLHIKDSMGNTALHYAVYSGNLATAARLLQYGADIEERTKDNLTPLLLALRENRLKMAQFLVRMEASVHAVDSQRRNSLMYAVRCDSPVMVNLILQQGVDINLKDLFGWTALRYAIEGDRDVRTMLLELRKRNRAFQSSENSSIRLINKADAEVTSPTANEKVIEMQDPFTTNEASVEKTQTRRPAESELEVFSLEEEISYKETINNLQQNPGQRSAKTDAATENRSP | failed
IESIPMPILYKNMEGSYLGCNSKFLELSGKSREEVIGFRVGDLLDKKSAMEIEECERHLKEKGECPSHDIRFVDHRGEECFIRVYKTLLTNNFDEPVGILGFFVDMS | failed
MIRILICFSLITASLLITSIFANSALLFTEFIHSLVDLIPIAFAFYALRIIDRIDSKYTYGLHRLEIVSSLFNIFTVVAGSVFSVYISTVELIEGSRGDFLLVLISSSIALSLSLVASTDKSEEGRVSGSKLHAIQDSLAYILAVISSLLIIIMKIYFIDPVSAYILNGVLVITSLSPLKFSYNILMEKSPIDTKSVETELQSIFPQVHHIHVWSICDHLNVATLHVRENPDLTLRELDKKREYAEKVLREKFGITHVTIQFEANNKKERLEKI | failed
MKERVIITGANGQLGKQLQEELNPEEYDIYPFDKKLLDITNISQVQQVVQEIRPHIIIHCAAYTKVDQAEKERDLAYVINAIGARNVAVASQLVGAKLVYISTDYVFQGDRPEGYDEFHNPAPINIYGASKYAGEQFVKELHNKYFIVRTSWLYGKYGNNFVKTMIRLGKEREEISVVADQIGSPTYVADLNVMINKLIHTSLYGTYHVSNTGSCSWFEFAKKIFSYANMKVNVLPVSTEEFGAAAARPKYSIFQHNMLRLNGFLQMPSWEEGLERFFIETKSH | not failed
MIDVINNQAFHLHNDQISYICALLPNGQLGHLYFGPRLSLTKNDLAYLSQGSSPFAWMANFSDDQEFALGDAQQEYPVYGTGDFRQGSLSVTQDDMPIYPNFVFKDDQLTHTKTRDLHHPTSFGNPALTDVLTIHLEDKTAQLLLTLQYTIFADSAAIVRSATLTNQGTAPVMIQRMLSGVLNLPQGRYDVVHLSGNWAKERHIQTQPLTQGTFSVESLRGASSHEQNPFVALHAAGQPFAAGDTYGANLIYSGNFLDSTEVNEWDQTRLLTGIHPASFSWRLDPKTSFTTPETVFSYSSGGLAGLAQANQRFVARHIIDPQWRQKQRPVVLNSWEATYFDLNEKKLLKLAALGKQVGVDCFVLDDGWFGTRDNDLSSLGDWFTNKHKFPDGLGHFAQEIHAMGLQFGLWFEPEMVSPRSQFFQAHPNWVVRPKKGRISITRNQYVLDFSNPAVVNNIFEQMQKVITETNLDYVKWDLNRSITEAFSPYLEKIGHPQGEFFHRYVQGVYTLYQKLLTAFPHLLIEGCAGGGGRFDLGILFYSPQIWTSDDSDAIERLAIQSGMALAYPLSCMSNHVTAVPNEQVGRSTPLVTRFRVAAFGILGYELDLTKLDARTLATIKAQIAYYHALQPLVLKGDFSLLLPRQSNGQNQVAWLLSAHDRKHLVLGFFRVLADADSRTVQYMKVPLAKSDTPYWVNQHTGPISGDVLQRVGVRLPVQFNGANRAQAQLIGDYQSVLLTFDSVASLDHILEHHHHHH | failed
MDFLTEWIWFFLFVPLAALGGWIVGRRGGQRHGDTQVSRLSSTYFRGLNYLLNEQPDKAIELFLHIAELDKETFETQVALGHLFRRRGEVDRAIRLHQGLVQRGDLTDQQRVQALLALGEDYMKSGLLDRAETVFTELAQLDQRAPQALRHLIGIYQAERDWEKAIDNATRYEEVTGEPMGKLISQFECELADRYRGLGKTDDALQAIARAYQADGTSVRAGILEGRIEAERGHDEAAVRAFERAARHDPEYLPEIIPALMAAYRRVGDIAGARNFLSEMTEHYRGIAPVLALTQLMEAQDGVAPALAYLGRQLKDRPSVRGESALIDLTLAEGSDPVGTLQDLKHITDQLLVRNPSYRCTRCGFGAKTHHWQCPSCKEWGTVKPLLNYAVV | failed
MNANIMLNEDITPIGSDYDTVRGVIELLTLDYREQPSLEAIAARLGQSPTQLQKTFTRWAGLSPKAFLQAVTLDHAKRLLREEDLPLLETSIEVGMSGPGRLHDLFVTHEAMSPGEWKAKGGGLTIRYGFHASPFGLALVMITDRGLAGCAFADPGDERACFEDMAGRWPNADYVEDREATAPYAARIFEPAMWTADKPLRVVLLGTDFQVRVWKSLLKIPMGRAVTYSNIACDIGQPTASRAVGAAVGANPVSFVVPCHRAVGKSGALTGYHWGLTRKRAMLGWETGKALEHHHHHH | failed
MGTYVEPSKLSYGEYLESWFNTKRHSVGIQTAKVLKGYLNSRIIPSLGNIKLAKLTSLHMQNYVNSLRDEGLKRGTIEKIIKVIRNSLEHAIDLELITKNVAAKTKLPKADKEELEHHHHHH | failed
MTDREWPEYPNQSGGETVTGPESAQEEAASERGWEADPPSPASEECQSEEGSNWERTAQEAEEEVPGGQRGEDLGTLGQAQELQEAAPFFQEEGSEPSQTTETSGWKPGMESSEDSREEPDLPAESPESSGQELQEAAALSPEETQVPFQTENAWEPGAERPENPDGGESQEPVAERPSAQPYDQSPAFSRPAPQAPPPVWNPGWQASYRQAPQNYPYGQGQYQGGWHPQQRQVPPPYYGGTPYQAPNPYQNQAPYGYPGQAARNQGQPGYQESRWYPQQPAQPARTGSVPPPSQPPQKEAGELPDAKPPEKKRMNKKTKAFLWVIGAVLVLLGAAMVLYSVGLTSGWFGGETAEPPQASSSTPAPEDDQKLLEIEEIPQDGMMTPNQVYEKVKHSVVAVVTYGQGSDLTDSPISSGSGIVFSEDGYIVTNSHVIGDSNQYPVKMVFTGQDENEEDQEYPAQIVGYDKRTDIAVLKIDAAGLTPAEFADSDQLKVGDTVLSLGNPGVAGENFTNTLTKGMVSAVNRTVTMSSINMQYIQTDAAINPGSSGGALLNLYGQVVGINAAKITTTEIEGICFAIPTNIAKDVINDIVKNGYVSDRVRLGVTIRGLSSYEAEMYNVPQGLVIVGFSSDSEIPSKGAEIGDIITAINGVNTTSSNTLYNELEKFKAGEKVKLTIYRQASGSQRARTFEIEVTLLEARGETQSAVTPTPEAP | failed

— a protein production outcome set (Wang et al. 2014)
